{"source": "paper PMC6609874", "about": "“MeABL5, an ABA Insensitive 5-Like Basic Leucine Zipper Transcription Factor, Positively Regulates MeCWINV3 in Cassava (Manihot esculenta Crantz)”", "binders": {"B1": {"name": "pMeCWINV3-WT 60 bp (dsDNA)", "DNA 1": "ATCGTTGACATGTGAGTATTTGACGTATCCACGTGGGAAAGGGAAGAAAAACAACATTGA", "DNA 2": "TCAATGTTGTTTTTCTTCCCTTTCCCACGTGGATACGTCAAATACTCACATGTCAACGAT"}, "B2": {"name": "pMeCWINV3-MT 54 bp (CACGTG deleted) (dsDNA)", "DNA 1": "ATCGTTGACATGTGAGTATTTGACGTATCGGAAAGGGAAGAAAAACAACATTGA", "DNA 2": "TCAATGTTGTTTTTCTTCCCTTTCCGATACGTCAAATACTCACATGTCAACGAT"}}, "molecular_target": "T1, MeABL5 (Manihot esculenta Crantz, UniProt A0A411G151)", "T1 sequence": "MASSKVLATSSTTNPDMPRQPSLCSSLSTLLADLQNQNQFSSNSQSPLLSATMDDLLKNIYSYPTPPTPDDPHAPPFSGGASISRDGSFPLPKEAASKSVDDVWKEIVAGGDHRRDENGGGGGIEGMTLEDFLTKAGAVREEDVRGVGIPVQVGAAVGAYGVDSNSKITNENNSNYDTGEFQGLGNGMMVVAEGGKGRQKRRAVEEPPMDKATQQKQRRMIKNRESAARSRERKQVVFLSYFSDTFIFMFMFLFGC", "assay": "EMSA; 250 ng protein, 500 ng DNA; EMSA kit (Invitrogen), room temperature 30 min, 500 ng DNA, 0-250 ng protein, PAGE with SYBR Green/SYPRO Ruby stain; buffer, salt and pH not stated", "conditions": "protein: recombinant; tags: MBP (pET28a-MBP) removed by TEV protease; Ni column purified; chain copies: 2; label: none (SYBR Green stain); annealed duplex", "data": [{"binder": "B1", "values": [{"measurement": "binding result", "value": "binds"}]}, {"binder": "B2", "values": [{"measurement": "binding result", "value": "no binding"}]}]}
